Results: patent US20240174750A1 (VIRTUOSO BINCO, published 2024)

T1: extracellular domain (ECD) of cyno CD47 (4aa-126aa) with C-terminal 6xHis tag (cynomolgus monkey, UniProt Q08722 19-140 (human entry), limits assumed)
T1 construct: also called cynomolgus monkey CD47
T1 chain: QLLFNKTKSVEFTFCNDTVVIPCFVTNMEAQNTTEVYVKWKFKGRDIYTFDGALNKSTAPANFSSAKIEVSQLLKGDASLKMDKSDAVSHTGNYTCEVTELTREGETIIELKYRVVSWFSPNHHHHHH


Experiments:
[1] = biological target: T2, CD47 on the surface of CD47+ cells (human, UniProt Q08722 19-323); assay: flow cytometry, competition with SIRPA-mIgG2a on CD47+ tumor cells; IC50 as grade, legend the 8th table, row 26
T2 construct: whole, on cells; also called CD47+ cell lines; CD47 on Raji cells, HCT-15 cells, human red blood cells (RBCs), human platelets
Protocol: Tumor cells were harvested, centrifuged, and then resuspended in FACS buffer (PBS plus 2% FBS) at a concentration of 2×10⁶ cells/mL. 100 μL of the cell suspension was dispensed into each well of a 96-well plate. The plate was centrifuged for 5 min and 300×g, and the supernatants were discarded. […] After washing twice with FACS buffer, the plates were resuspended with 300 μL FACS buffer and analyzed by flow cytometry.

[2] = biological target: T3, extracellular domain (ECD) of human CD47 (19aa-139aa) with C-terminal 6xHis tag (human, UniProt Q08722 19-139); assay: SPR, Biacore 8K, antibody captured by anti-human Fc, monomeric CD47 ECD injected, 25 C, 1:1 Langmuir
T3 construct: also called recombinant CD47; recombinant human CD47
Protocol: Furthermore, binding kinetics measurements of the anti-CD47 antibodies were not affected by antibody valency in the SPR assays because antibodies were immobilized and challenged with monomeric antigens. SPR was performed on a Biacore 8K instrument (GE Healthcare). Antibodies were captured on Biacore Series S CM5 sensor chips coated with a monoclonal mouse anti-human IgG (Fc) antibody (GE Healthcare human antibody capture kit). Serial 3-fold dilutions of CD47 ECD antigen were injected at a flow rate of 30 μL/min. Each sample was analyzed with 1 min association and 10 min dissociation at room temperature (25° C.). After each injection, the chip was regenerated using 3M MgCl₂. A 1:1 Langmuir model of simultaneous fitting of kon and koff was used for kinetics analysis.

[3] = biological target: T2, CD47 on the surface of CD47+ cells; assay: flow cytometry on CD47+ cell lines; EC50 as grade, legend the 7th table, row 26
Protocol: Antibody binding to CD47+ cell lines was quantified by flow cytometry. Harvested cells were centrifuged at 2000 rpm for 5 min, resuspended in 10-15 mL ice-cold culture medium, and then counted. Cells were resuspended in blocking buffer (PBS plus 2% FBS) at a concentration of 3×10⁶ cells/mL. 100 μL of the cell suspension was dispensed into each well of a 96-well plate. Purified antibodies were diluted to the desired concentrations with blocking buffer and 100 μL of diluted antibodies were added to the well and incubated for 1 hour at 4° C. The cells were then washed 3 times with PBS plus 2% FBS. […] The cells were then washed 3 times with 200 μL PBS by centrifuging at 2000 rpm for 5 min. After the last wash, the cells were resuspended in 300 μL cold PBS and analyzed on a FACSVerse™ (BD Biosciences) flow cytometer.

[4] = biological target: T3, extracellular domain (ECD) of human …; assay: ELISA, coated recombinant CD47; EC50 as grade, legend the 6th table, row 26
Protocol: A 96-well plate was coated overnight at 4° C. with 1 μg/ml recombinant CD47. After washing 3 times, the plate was blocked with 300 μL 1% BSA in PBST at 37° C. for 1 hour. Serially diluted antibodies were added and incubated at 37° C. for 1 hour. The plate was then washed 4 times with PBST and incubated with 1:5000 diluted 2nd antibody (Sigma, Cat #A0293) at 37° C. for 1 hour.

[5] = biological target: T3, extracellular domain (ECD) of human …; assay: ELISA, coated recombinant CD47, FIG. 4A-4B
Protocol: (§1) A 96-well plate was coated overnight at 4° C. with 1 μg/mL recombinant CD47. After washing 3 times, the plate was blocked with 300 μL 100 BSA in PBST at 37° C. for 1 hour. Serially diluted antibodies were added and incubated at 37° C. for 1 hour. The plate was then washed 4 times with PBST and incubated with 1:5000 diluted peroxidase labeled goat anti-human IgG (Fab specific) secondary antibody (Sigma, Cat #A0293) for 1 hour at 37° C. The plate was washed again 4 times with PBST, incubated with 3,3′,5,5′-tetramethylbenzidine (TMB) substrate for 15 min at room temperature, terminated with 1N HCl, and then read at 450 nm.

[6] = biological target: T1, extracellular domain (ECD) of cyno CD47 …; assay: ELISA, coated recombinant CD47, FIG. 4A-4B
Protocol: as §1

Row | Binder | IC50 [1] | Kd [2] | EC50 [3] | EC50 [4] | binding result [5] | binding result [6]
1 | R.18B9 (antibody, human IgG1, kappa, V domains shown, Chimeric: rabbit variable domains, human IgG1 and human kappa constant regions; also called Chimeric antibody 18B9) VH: QSLEESGGDLVKPGASLTLTCKASGFSFNSGYMCWVRQAPGKGLEWIACIYAGSSGKTYYASWATGRFTISKTSSTTVTLQMTSLTVADTATYFCARDDGGTYYTDYLYLWGPGTLVTVSS VL: DVVMTQTPASVEAAVGGTVTIKCQASEGISSYLSWYQQKPGQPPKLLIYKASTLTSGVPSRFKGSGSGTDFTLTISDLESADAATYYCQCTYGSSGSSGYGAAFGGGTEVVVKR | 0.1 to 1 nM | 10 to 100 nM | 0.5 to 5 nM | 0.01 to 0.1 nM |  | 
2 | hu.1D15E11-V1 (antibody, human IgG1, kappa, V domains shown, Humanised variant of 1D15E11; also called hu.1D15E11-Vi; hu.1D15E11 variants) VH: EVQLVQSGAEVKKPGASVKVSCKASGYTFTSYVMHWVRQAPGQRLEWMGYIDPYNEGTKYNEKFKGRVTITRDTSASTAYMELSSLRSEDTAVYYCSRGGMARRSFDYWGQGTLVTVSS VL: DIQMTQSPSSLSASVGDRVTITCLASQTIGTWLTWYQQKPGKAPKLLIYAATTLAEGVPSRFSGSGSGTDFTLTISSLQPEDFATYYCQQLYSTPWTFGGGTKVEIKR |  |  |  |  | binds | binds
3 | M.1D15E11 (antibody, human IgG1, kappa, V domains shown, Chimeric: mouse variable domains, human IgG1 and human kappa constant regions; also called Chimeric antibody 1D15E11) VH: EVQLQQSGPELVKPGAPVKMSCKASGYTFTSYVMHWVKQKPGQGLEWIGYIDPYNDGTKYNEKFKGKATLTSDKSSSTAYMELSSLTSEDSAVYYCSRGGMARRSFDYWGQGTTLTVSS VL: DIQMTQSPASQSASLGESVTITCLASQTIGTWLTWYQQKPGKSPQLLIYAATTLADGVPSRFSGSGSGTKFSFKISSLQAEDFVSYYCQQLYSTPWTFGGGTKLEIKR | 0.1 to 1 nM | 1 to 10 nM | 0.1 to 0.5 nM | 0.01 to 0.1 nM |  | 

Second part, the binder after the results:

Row | IC50 [1] | Kd [2] | EC50 [3] | EC50 [4] | binding result [5] | binding result [6] | Binder
4 |  |  |  |  | binds | binds | hu.1D15E11-V4 (antibody, human IgG1, kappa, V domains shown, Humanised variant of 1D15E11; also called hu.1D15E11 variants) VH: EVQLVQSGAEVKKPGASVKVSCKASGYTFTSYVMHWVRQAPGQRLEWMGYIDPYNEGTKYNEKFKGRVTITRDTSASTAYMELSSLRSEDTAVYYCSRGGVARRSFDYWGQGTLVTVSS VL: DIQMTQSPSSLSASVGDRVTITCLASQTIGTWLTWYQQKPGKAPKLLIYAATTLAEGVPSRFSGSGSGTDFTLTISSLQPEDFATYYCQQLYSTPWTFGGGTKVEIKR
5 |  |  |  |  | binds | binds | hu.1D15E11-V3 (antibody, human IgG1, kappa, V domains shown, Humanised variant of 1D15E11; also called hu.1D15E11 variants) VH: EVQLVQSGAEVKKPGASVKVSCKASGYTFTSYVMHWVRQAPGQRLEWMGYIDPYNEGTKYNEKFKGRVTITRDTSASTAYMELSSLRSEDTAVYYCSRGGIARRSFDYWGQGTLVTVSS VL: DIQMTQSPSSLSASVGDRVTITCLASQTIGTWLTWYQQKPGKAPKLLIYAATTLAEGVPSRFSGSGSGTDFTLTISSLQPEDFATYYCQQLYSTPWTFGGGTKVEIKR
6 |  |  |  |  | binds | binds | hu.1D15E11-V2 (antibody, human IgG1, kappa, V domains shown, Humanised variant of 1D15E11; also called hu.1D15E11 variants) VH: EVQLVQSGAEVKKPGASVKVSCKASGYTFTSYVMHWVRQAPGQRLEWMGYIDPYNEGTKYNEKFKGRVTITSDTSASTAYMELSSLRSEDTAVYYCSRGGMARRSFDYWGQGTLVTVSS VL: DIQMTQSPSSLSASVGDRVTITCLASQTIGTWLTWYQQKPGKAPKLLIYAATTLAEGVPSRFSGSGSGTDFTLTISSLQPEDFATYYCQQLYSTPWTFGGGTKVEIKR
